# Test results taken from patent publication US20160060347A1 (MorphoSys, published 2016).
# Numbering of substitutions follows the chain as printed. Where no end group is shown, it is not given here.
# T1: N-Terminal Peptide aa1-17 (Transferrin- or BSA-Coupled) (human, also: coupled to carrier protein (BSA or transferrin), site not given here)
# T1 peptide: MEDFNMESDSFEDFWKGC
# T2: human CXCR2 (human, UniProt P25025 1-360)
# T2 construct: Expressed on Flp-In CHO cells (FACS, Fab-ZAP, ADCC, CDC) or on bought PathHunter CHO cells (beta-arrestin assay); the construct in the PathHunter cells is not described; also called chemokine receptor CXCR2; CXCR2 CHO Flp-In cells
# T2 sequence: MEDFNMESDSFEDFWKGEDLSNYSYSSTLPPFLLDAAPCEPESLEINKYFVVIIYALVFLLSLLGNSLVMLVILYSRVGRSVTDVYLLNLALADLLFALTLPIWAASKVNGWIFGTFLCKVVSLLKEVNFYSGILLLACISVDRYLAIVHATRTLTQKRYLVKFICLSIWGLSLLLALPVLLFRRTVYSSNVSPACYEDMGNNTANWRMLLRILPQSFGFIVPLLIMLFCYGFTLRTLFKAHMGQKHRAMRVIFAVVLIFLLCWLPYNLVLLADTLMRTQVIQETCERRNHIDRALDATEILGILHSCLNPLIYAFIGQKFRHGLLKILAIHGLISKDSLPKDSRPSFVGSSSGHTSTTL
# T3: peptide derived of extracellular domain three (human, coupled to a carrier protein (BSA or transferrin, not stated which))
# T3 construct: also called ECL3 peptide
# T3 peptide: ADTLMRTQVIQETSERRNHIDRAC
# B1: CX2-Mab #3 (Fab format) (Fab, V domains shown)
# VH: EVQLLESGGGLVQPGGSLRLSCAASGFTFSSYWMSWVRQAPGKGLEWVSVISYSGSETFYADSVKGRFTISRDNSKNTLYLQMNSLRAEDTAVYYCARGRVGYAFDYWGQGTLVTVSS
# VL: DIVLTQPPSVSGAPGQRVTISCSGSSSNIGVNYVNWYQQLPGTAPKLLIYSNNQRPSGVPDRFSGSKSGTSASLAITGLQAEDEADYYCQSRASGFYSVVFGGGTKLTVLG
# B2: CX2-Mab #4 (Fab format) (Fab, V domains shown)
# VH: EVQLLESGGGLVQPGGSLRLSCAASGFTFSSNGMSWVRQAPGKGLEWVSAISSSGSKTYYADSVKGRFTISRDNSKNTLYLQMNSLRAEDTAVYYCARGYGFDVWGQGTLVTVSS
# VL: DIVLTQPPSVSGAPGQRVTISCSGSSSNIGVNIVNWYQQLPGTAPKLLIYSTSNRPSGVPDRFSGSKSGTSASLAITGLQAEDEADYYCATRDGISKSVVFGGGTKLTVLG
# B3: CX2-Mab #1 (Fab format) (Fab, V domains shown)
# VH: QVQLVQSGAEVKKPGSSVKVSCKASGGTFSSYAISWVRQAPGQGLEWMGGIIPIVGEAKYAQKFQGRVTITADESTSTAYMELSSLRSEDTAVYYCARDSSGYDGYYAFAYWGQGTQVTVSS
# VL: DIVLTQPPSVSGAPGQRGTISCSGSSSNIGSSSVNWYQQLPGTAPKLLIYRNNQRPSGVPDRFSGSKSGTSASLAITGLQAEDEADYYCGATDFSANQVVFGGGTKLTVLG
# B4: CX2-Mab #6 (Fab format) (Fab, V domains shown)
# VH: EVQLLESGGGLVQPGGSLRLSCAASGFTFSSYTMSWVRQAPGKGLEWVSAIHSSGSSTYYADSVKGRFTISRDNSKNTLYLQMNSLRAEDTAVYYCARVPAYYGFDHWGQGTLVTVSS
# VL: DIELTQPPSVSVSPGQTASITCSGDSLGAFYVHWYQQKPGQAPVLVIYRTNNRPSGIPERFSGSNSGNTATLTISGTQAEDEADYYCASYASRNRVFGGGTKLTVLG
# B5: CX2-Mab #5 (Fab format) (Fab, V domains shown)
# VH: EVQLLESGGGLVQPGGSLRLSCAASGFTFNSNAMSWVRQAPGKGLEWVSFISYSGSHTYYADSVKGRFTISRDNSKNTLYLQMNSLRAEDTAVYYCARYTRFLSRPAFDPWGQGTLVTVSS
# VL: DIVLTQPPSVSGAPGQRVTISCTGSSSNIGAGYDVHWYQQLPGTAPKLLIYYNSKRPSGVPDRFSGSKSGTSASLAITGLQAEDEADYYCGAYDRKMNSYVFGGGTKLTVLG
# B6: CX2-Mab #2 (Fab format) (Fab, V domains shown)
# VH: QVQLVQSGAEVKKPGASVKVSCKASGYTFSRYAMHWVRQAPGQGLEWMGVINPYNGNTRYAQKFQGRVTMTRDTSISTAYMELSRLRSEDTAVYYCARGSHIQAGAFDYWGQGTLVTVSS
# VL: DIQMTQSPSSLSASVGDRVTITCRASQGINNRLNWYQQKPGKAPKLLIYDGSSLQSGVPSRFSGSGSGTDFTLTISSLQPEDFATYYCQQYIHFPVTFGQGTKVEIKR
# B7: CX2-Mab #3.1 (antibody, IgG1, V domains shown)
# VH: B1 VH with E1Q
# VL: B1 VL with S91T, S94V, G95H, Y97A, S98R
# B8: CX2-Mab #1.5 (antibody, IgG1, V domains shown)
# VH: B3 VH
# VL: B3 VL with G90A, A91S, F94S, S95Q, A96W, N97R, V99I
# Molecular target: T4, hu_CXCR2_N-term (1-17)-BSA (human; bovine, coupled to carrier protein BSA; C-terminal cysteine introduced to enable coupling)
# T4 construct: Synthetic linear peptide chemically coupled to the carrier; also called CXCR2_aa1-17_BSA; CXCR2 aa1-17 BSA
# Test: SPR (Biacore), peptide-BSA immobilized, Fab analyte, steady-state fit
# Description: (§1) Affinities (KD values) were determined using SPR (Biacore T200, GE Healthcare) using the following setup: The antigens (hu_CXCR2_N-term (1-17)-BSA, or hu_CXCR2_N-term (1-17)-Trf, respectively) were covalently coupled to a CM5 sensor chip using NHS/EDC chemistry. Antigens were diluted in 10 mM Acetate pH4.5 to a concentration of approx. 100 μg/mL. The final immobilization level was approx. 400 RU for the BSA-coupled peptide and 200 RU for the TRF-coupled peptide. HBS-EP pH7 was used as running buffer throughout the experiment at a flow rate of 30 μL/min. Fab fragments were used as samples (monomer portion at least 90% as determined by HP-SEC, Superdex 75 PC3.2/30 (GE Healthcare). Of each sample, a 2n serial dilution row from 31.25-1000 nM was prepared (6 concentrations) and injected, followed by a blank injection, which was later used for double referencing. Association of Fab samples was recorded for 240 s, and dissociation was monitored for 300 s. At the end of each cycle bound (Fab−) sample was removed from the sensor with one 30 s injection of MgCl2 (3M).
# (§2) Most of the recorded binding curves deviated from the expected bimolecular binding model (1:1), but the sensorgrams seemed to reach equilibrium towards the late association phase. Therefore, the binding data (report point late association) was fitted to a steady state model. The Req vs. concentration plots/fits followed the assumed one-binding-site model, and the resulting KD were reported. EC50 values determined by ELISA were in the single digit nanomolar range on N-terminal CXCR2 peptides. […] Respective results of selected 6 Fabs are summarized in Table 1 (data of one representative experiments are shown).
# T4 sequence (P02769 25-607 limits assumed): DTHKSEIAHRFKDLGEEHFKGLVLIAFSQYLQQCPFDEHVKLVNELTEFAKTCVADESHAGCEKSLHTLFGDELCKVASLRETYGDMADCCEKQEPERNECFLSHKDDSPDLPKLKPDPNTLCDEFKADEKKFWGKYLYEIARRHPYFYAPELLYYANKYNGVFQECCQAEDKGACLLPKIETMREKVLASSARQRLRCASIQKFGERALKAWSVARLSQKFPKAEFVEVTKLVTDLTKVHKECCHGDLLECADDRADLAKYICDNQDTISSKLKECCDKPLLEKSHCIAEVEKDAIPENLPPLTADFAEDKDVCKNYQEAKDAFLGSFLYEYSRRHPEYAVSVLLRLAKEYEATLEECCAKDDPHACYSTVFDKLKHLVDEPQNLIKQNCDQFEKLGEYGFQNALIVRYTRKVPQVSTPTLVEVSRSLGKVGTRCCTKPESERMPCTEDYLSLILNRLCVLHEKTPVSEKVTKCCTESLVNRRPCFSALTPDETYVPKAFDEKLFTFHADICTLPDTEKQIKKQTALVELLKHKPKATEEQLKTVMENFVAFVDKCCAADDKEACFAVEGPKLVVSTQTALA
row,Kd,Binder
1,393 nM,B1
2,143 nM,B2
3,534 nM,B3
4,353 nM,B4
5,146 nM,B5
6,221 nM,B6

# Molecular target: T5, hu_CXCR2_N-term (1-17)-Trf (human, coupled to carrier protein human transferrin; C-terminal cysteine introduced to enable coupling)
# T5 construct: Synthetic linear peptide chemically coupled to the carrier; also called CXCR2_aa1-17_TRF; N-terminal peptide aa1-17, Transferrin-coupled
# Test: SPR (Biacore), peptide-TRF immobilized, Fab analyte, steady-state fit
# Description: as §1, §2
# T5 sequence (P02787 20-698 limits assumed): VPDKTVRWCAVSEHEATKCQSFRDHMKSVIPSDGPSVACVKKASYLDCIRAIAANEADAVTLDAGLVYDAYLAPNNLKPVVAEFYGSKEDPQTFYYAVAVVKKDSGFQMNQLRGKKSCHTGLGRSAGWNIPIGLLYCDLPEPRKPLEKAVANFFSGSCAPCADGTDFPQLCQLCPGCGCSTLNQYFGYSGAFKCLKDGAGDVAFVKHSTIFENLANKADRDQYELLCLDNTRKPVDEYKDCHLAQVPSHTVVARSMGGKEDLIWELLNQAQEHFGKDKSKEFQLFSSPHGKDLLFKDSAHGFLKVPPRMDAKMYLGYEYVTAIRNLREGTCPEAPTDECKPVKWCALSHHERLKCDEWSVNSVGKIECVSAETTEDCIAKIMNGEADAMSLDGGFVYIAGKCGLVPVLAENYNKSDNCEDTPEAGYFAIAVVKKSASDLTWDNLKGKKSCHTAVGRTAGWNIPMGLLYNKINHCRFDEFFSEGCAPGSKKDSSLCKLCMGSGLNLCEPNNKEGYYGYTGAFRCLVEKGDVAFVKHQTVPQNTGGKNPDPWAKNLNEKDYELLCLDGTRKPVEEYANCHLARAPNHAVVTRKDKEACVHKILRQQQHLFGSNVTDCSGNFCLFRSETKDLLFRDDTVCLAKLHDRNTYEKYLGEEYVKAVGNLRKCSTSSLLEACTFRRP
row,Kd,Binder
1,317 nM,B1
2,101 nM,B2
3,269 nM,B3
4,251 nM,B4
5,149 nM,B5
6,210 nM,B6

# Molecular target: T4, hu_CXCR2_N-term (1-17)-BSA
# Test: ELISA, coated peptide-BSA, Fab
# Description: (§3) 384-well Maxisorp plates (Nunc; Cat. #460518) were coated with respective CXCR2 and control peptides coupled either to BSA or Transferrin (TRF) at 1-5 μg/mL and incubated o/n at 4° C. […] After three washing steps, antibodies were added at 5-10 μg/mL and titrated in some experiments. Antibodies were incubated 1 h at room temperature and plates were subsequently washed. Binding of anti-CXCR2 antibodies was detected by using alkaline phosphatase-conjugated anti-human IgG, (Dianova, Cat #109-055-097). AttoPhos fluorescence substrate (Roche, Cat #1484281) was added according to instructions of the manufacturer and fluorescence was measured (excitation at 430 nm, emission at 535 nm) using a microplate reader.
# (§4) The Fabs were further tested including affinity determination via BiaCore, EC₅₀ determination in ELISA and FACS, as well as the evaluation of cellular cytotoxicity via secondary immunotoxin (Saporin) upon antibody internalization (Fab-ZAP). Respective experimental settings as outlined in Example 3 were used.
row,EC50,Binder
1,4.7 nM,B1
2,0.8 nM,B2
3,6.1 nM,B3
4,1.3 nM,B4
5,0.6 nM,B5
6,3.6 nM,B6

# Molecular target: T5, hu_CXCR2_N-term (1-17)-Trf
# Test: ELISA, coated peptide-TRF, Fab
# Description: as §3, §4
row,EC50,Binder
1,2 nM,B1
2,0.4 nM,B2
3,1 nM,B3
4,0.5 nM,B4
5,0.5 nM,B5
6,1.3 nM,B6

# Molecular target: T1, N-Terminal Peptide aa1-17 (Transferrin- …)
# Test: initial screening, Fab; carrier of the peptide not stated
row,signal over background,Binder
1,≥ 5 fold,B1
2,≥ 5 fold,B2
3,≥ 5 fold,B3
4,≥ 5 fold,B4
5,≥ 5 fold,B5
6,≥ 5 fold,B6

# Molecular target: T2, human CXCR2
# Test: FACS, CXCR2 CHO Flp-In cells, IgG1
# Description: (§5) Human CXCR2-expressing Flp-In™ CHO cells were harvested at ˜80% confluence washed once with PBS (Gibco, Cat #14190-094) and detached using Versene (Invitrogen, Cat #15040-033). Subsequently, cells were counted and centrifuged at 250×g for 5 min at 4° C. Afterwards, cells were diluted in Superblock (Thermo Fisher Perbio Science, Cat #37515) to a cell concentration of 2E+05-1E+06/mL and 100 μL/well were transferred to 96-well microtiter plate (Nunc, Cat#163320). Cells were once centrifuged, supernatant discarded and antibodies added at 1 μg/mL (unless stated otherwise), incubated for 1 h at 4° C. and washed twice with FACS buffer (PBS/3% FCS/0.02% NaN3). Binding of anti-CXCR2 antibodies was detected by incubation of Phycoerythrin-conjugated anti-human IgG (Dianova, Cat #109-116-097) for 1 h at 4° C. Samples were subsequently measured using FACS Array (Becton Dickinson).
row,binding result,Binder
1,binds,B7
2,binds,B8

# Molecular target: T2, human CXCR2
# Test: FACS, CXCR2 CHO Flp-In cells, Fab
# Description: as §5, §4
row,EC50,Binder
1,105 nM,B1
2,136 nM,B2
3,365 nM,B3
4,195 nM,B4
5,> 6000 nM,B5
6,> 6000 nM,B6

# Molecular target: T3, peptide derived of extracellular domain …
# Test: ELISA, Fab
# Description: as §3, §4
row,binding result,Binder
1,no binding,B1
2,no binding,B2
3,no binding,B3
4,no binding,B4
5,no binding,B5
6,no binding,B6

# Molecular target: T6, ECL3 peptide aa273-295, BSA-coupled (human; bovine, coupled to carrier protein BSA; C-terminal cysteine introduced to enable coupling)
# T6 construct: also called CXCR2 aa273-295 BSA; peptides representing the extracellular domain 3
# Test: ELISA, coated peptide-BSA, IgG1
# Description: as §3
# T6 sequence (P02769 25-607 limits assumed): as the sequence (P02769 25-607 limits assumed) above
row,binding result,Binder
1,binds,B7
2,binds,B8

# Molecular target: T7, N-terminal peptide aa1-48, BSA-coupled (human; bovine, coupled to carrier protein BSA; C-terminal cysteine introduced to enable coupling)
# T7 construct: also called CXCR2 aa1-48 BSA
# Test: ELISA, coated peptide-BSA, IgG1
# Description: as §3
# T7 sequence (P02769 25-607 limits assumed): as above
row,binding result,Binder
1,binds,B7
2,binds,B8

# Molecular target: T4, hu_CXCR2_N-term (1-17)-BSA
# Test: ELISA, coated peptide-BSA, IgG1
# Description: as §3
row,binding result,Binder
1,binds,B7
2,binds,B8
